According to the DeepSol protein solubility set:

Assay: soluble on expression in E. coli; label from the status in PepcDB or PDB records

Row | Sequence | soluble on expression in E. coli
1 | MSLRLKWEGTFADYLEIIKENPMVAQSAHSRVFNMIKDSGIEEIDGRKKYSFFDRELFGLEESLERLVEEYFHPAAKRLDVRKRILLLMGPVSGGKSTLVTMLKKGLEAYTLTDNGAVYAIKGCPMHEDPLHLIPHHLRDDFYREYGIRIEGSLSPLNVMRLEEEYGGRIEDVKVERIFFSEDKRTGIGTFSPSDPKSQDIADLTGSIDFSTIAEYGSESDPRAYRFDGELNKANRGMMEFQEMLKCDEKFLWHLLSLTQEGNFKAGRFALISADELIVAHTNETEYRSFISNKKNEALHSRIIVMPVPYNLKVSEEERIYEKMIAESDVADVHIAPHTLKVAAMFSILTRLKEPKRSDIDLVKKMRLYDGESVEGYNSVDVEDMKKEYNDEGMSGIDPRYVINRISSTIIRKNMESINSLDVLRSLKEGLDQHPSISSEDRERYLNFISAARKEYDDIAKKEVQKAFVYSYEESAKTLMDNYLDNVEAYCNKNKLRDPLTGEEMNPDEKLMRSIEEQIGISENAKKAFREEILIRISAYARKGKRFDYNSHERLREAIQKKLFADLKDVVKITTSTKTPDEQQLKKVNEVVARLIDEHGYNSTSANELLKYVGSLLNREGHHHHHH | soluble
2 | GMATSTDRTQEIQKLHELIKNIDYGMFTTVDDDGSLHSYPMSKSGDINSEATLWFFTYAGSHKVTEIEHHEQVNVSFSSPEQQRYVSISGTSQLVKDRNKMRELWKPELQTWFPKGLDEPDIALLKVNINQVNYWDSTSSFKPQTISF | soluble
3 | MMIKVGAAINGTDSPKAMKREHDNDDGDRTGRHKRPKTDGFTEAIQQGKFEVRLLVSSKSAGAIIGKGGENIKRLRAEFNAHVQVPDSNTPERVCTVTADEKTVLNILKDVLPRLEDNFSERDPCEVRMLVHQSHAGALIGRNGSKIKELREKCSARLKIFTGCAPGSTDRVLITSGEQKNVLGIIEEVMKELKEIPIKGSATPYLPAFNYDPSNISDYGGFPGNMPAGGPPNNRGPAPQRGGQGPPGGPRSYGGAITQGGGQRSFEAGDFQQFRGGPGPVPGYAMSAPGYPPQQGQFGAPNNAGYGYGPGGGGPVTTAQVTIPSDLGGTIIGRGGERIARIRQESGAQITLEQSNGQPERIITIKGTEQQIHSAQYLLQQCVRNSTQGRERFGGSV | not soluble
4 | MAHHHHHHMGVGFQSKKLQNFCHSGAGEMCALENCIPRWGSFPCNAPGLTPVYELSSFENVELPLIFQKSNIGDLLASTSDSVGQLNGFQARHSNTEGIKSQVSYTSVALSTTNRENLFGWVDCAALPLCSSSTAGASILLVTLLTRESRGKSCMCILDDLVCQLSNGPFNWGCGGDCHDLISISLPSEPRNHAACPIILPIAKLSRKEIWLREAAPKMDVETIIYEGDNQQHLVDDVANGTNAGSCAVMEAGCRPETALGPENVKYGDNESVTQCEVTVDITPSTEPSARCLHFSECTTPVSSNRSFMEPIPLSNMESKALRCRKFDGTSYEVLRRRAHSDALSLILKKYSEHLERVSQTSGRRGLDAHC | soluble
5 | MAFRQPNTKELKVIRKALSYYGSGDFLSHYALLVKEGEKKEVYGVSKELYGVIGELNPHYAGVKIGEVGRRFRFSLEGTFWLLRNSRNRVWVNERGEMLFLYGRDIFAGSVERASEFGENSIVFVCNRFDDVLGIGRSRHSSDELSNLPEDKVFVENLVDRGEYLRHQKTYLSF | not soluble
6 | IGQVKYNIGGSLSDAWSKVLELANNENVPNEGKNENRLIGMPRQALYVYQTDGIFQSADEVAAYYEKYYWNADHSGPKANNILPAPQEASTNTLRPGARKVVDLNGDGAITKDDLYYAGDMAPRLTFGFKLGLEWKGIDFSAFFQGVGKQVLLRGGYLAAPWTTNYVLQNKNFAGKMWSENNRDAEYTIASRDQNFNKWNYNNKDVSVQNNRYVRLKSLVVGYSLPQKWISKAGLSKLRVYFSGDDLWEWTKVKDGYDPEYGENSNNTFPFSRLLTFGVDVTF | not soluble
